Measured values: patent publication US5612040

Target: baby hamster kidney (BHK) cells
Test: cell binding to BHK cells at a constant virus/cell ratio (1000:1)

foot-and-mouth disease virus (FMDV) type A12, wild-type virus (VRGDF at amino acids 143-147 of VP1)
Cell Binding, %: 65%
